In paper PMC11079029, “Intramolecular autoinhibition regulates the selectivity of PRPF40A tandem WW domains for proline-rich motifs” (Nature Communications, 2024):
Where a chain is given by its changes, count along the chain named. Where “and” joins values, the source holds several entries; their conditions need not be identical. Equal entries are not always repeated.

How the values were obtained:
Conditions in all cases: both partners purified
[1] = biological target: T1, PRPF40A N-ext-WW12 (residues 56-236) (human, UniProt O75400 56-236); assay: ITC; 16-mer SF1 and polyproline peptides (N-terminal GB1 tagged) in the cell and PRPF40A construct in the syringe (said for Fig. 2; not told for Fig. 5C); 25 °C, 20 mM sodium phosphate pH 6.5, 100 mM NaCl; one-site model; apparent affinities
T1 construct: PRPF40A isoform 1, residues 56-236: N-terminal proline-rich region and the WW tandem; also called N-terminal extended WW12 construct; source: E. coli BL21(DE3), purified (Ni-NTA, TEV, reverse Ni-NTA, SEC); not shown: His6, N-terminal, cleaved
T1 sequence (looked up): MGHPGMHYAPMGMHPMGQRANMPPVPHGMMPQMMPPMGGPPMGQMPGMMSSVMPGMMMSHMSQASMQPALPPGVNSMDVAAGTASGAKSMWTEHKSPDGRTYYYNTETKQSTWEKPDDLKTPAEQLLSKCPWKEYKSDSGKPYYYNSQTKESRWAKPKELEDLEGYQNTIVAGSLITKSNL

[2] = biological target: T2, PRPF40A WW12 (tandem WW domains, residues 141-236) (human, UniProt O75400 141-236); assay: as above
T2 construct: pETM11 vector, NcoI/KpnI; 15N or 13C,15N labelled for NMR; also called PRPF40A WW tandem; PRPF40A tandem WW domains; source: E. coli BL21(DE3), purified (Ni-NTA, TEV, reverse Ni-NTA, SEC); not shown: His6, N-terminal, cleaved

[3] = biological target: T3, PRPF40A N-ext-WW12 mutant (PPVP/PALPP motifs changed to alanine residues) (human, UniProt O75400 56-236, PPVP, residues 78-81, to alanine residues | PALPP, residues 123-127, to alanine …); assay: as above
T3 construct: PRPF40A isoform 1, residues 56-236, with the motifs PPVP (78-81) and PALPP (123-127) changed to alanine residues; Made by site-directed mutagenesis; also called mutant version of the N-ext-WW12 construct; mutated version of the N-extWW12; source: E. coli BL21(DE3), purified (Ni-NTA, TEV, reverse Ni-NTA, SEC); not shown: His6, N-terminal, cleaved
T3 sequence (looked up): T1 sequence (looked up) with P23A, P24A, V25A, P26A, P68A, L70A, P71A, P72A

[4] = biological target: T2, PRPF40A WW12 (tandem WW domains, …); assay: ITC; GB1-tagged SF1/SF3A1 constructs in the syringe and the WW tandem in the cell; 25 °C, 20 mM sodium phosphate pH 6.5, 100 mM NaCl; one-site model; apparent affinities
[5] = biological target: T4, PRPF40A WW12 (tandem WW domains, residues 141-236) (human, UniProt O75400 141-236); assay: ITC; MicroCal PEAQ-ITC, 25 °C, 20 mM sodium phosphate pH 6.5, 100 mM NaCl; PRPF40A constructs and GB1-tagged SF1 16-mer peptides; who was in the syringe is not stated for these panels (Fig. 2B, Fig. 5C); one-site model
T4 construct: pETM11 vector (NcoI/KpnI); also called PRPF40A WW tandem; isolated WW domains; source: E. coli BL21(DE3), purified (Ni-NTA, TEV cleavage, reverse Ni-NTA, SEC); not shown: His6, N-terminal, cleaved

[6] = biological target: T5, PRPF40A N-ext-WW12 (residues 56-236) (human, UniProt O75400 56-236); assay: as above
T5 construct: PRPF40A isoform 1, residues 56-236: N-terminal proline-rich region and both WW domains; pETM11 vector; also called Nter Ext WW12; N-terminal extended WW12 construct; source: E. coli BL21(DE3), purified (Ni-NTA, TEV cleavage, reverse Ni-NTA, SEC); not shown: His6, N-terminal, cleaved
T5 sequence (looked up): T1 sequence (looked up)

B1: GB1-tagged SF1 575-590 peptide (SF1 PRPF40A WW binding site) (peptide)
chain: GAMSGSPPLPPGAPPPPPPPPPSGSN
notes: common N-terminal residues after the TEV site (TEVsite-GAMSGS-peptide-SGSN); SF1 residues 575-590; common C-terminal residues; pET24 vector with 6xHis, GB1 and TEV site as N-terminal cassette; not cut with TEV for ITC and NMR titrations; also called SF1_(WWbs); source: E. coli BL21(DE3), purified (Ni-NTA, SEC), GB1 tag kept; not shown: GB1, N-terminal, kept
B1 was tested, and the Kd [1] was 8.8 µM, the Kd [2] was 1.4 µM and the binding result [3] was “binds”.

B2: GB1-tagged SF1 Pro ABCD (410-639) (domain or fragment, UniProt Q15637 410-639, looked up)
chain: GHPMQHNPNGPPPPWMQPPPPPMNQGPHPPGHHGPPPMDQYLGSTPVGSGVYRLHQGKGMMPPPPMGMMPPPPPPPSGQPPPPPSGPLPPWQQQQQQPPPPPPPSSSMASSTPLPWQQNTTTTTTSAGTGSIPPWQQQQAAAAASPGAPQMQGNPTMVPLPPGVQPPLPPGAPPPPPPPPPGSAGMMYAPPPPPPPPMDPSNFVTMMGMGVAGMPPFGMPPAPPPPPPQN
notes: SF1 residues 410-639, the whole proline-rich C-terminal region; also called complete C-terminal region of SF1; source: E. coli BL21(DE3), purified (Ni-NTA, SEC), GB1 tag kept; not shown: GB1, N-terminal, kept
In the case of B2, the “stoichiometry N” value [4] is reported as 3 PRPF40A tandems per SF1 construct.

B3: GB1-tagged SF3A1 Middle Pro (364-413) (domain or fragment, UniProt Q15459 364-413, looked up)
chain: EGQKVPPPPETPMPPPLPPTPDQVIVRKDYDPKASKPLPPAPAPDEYLVS
notes: SF3A1 residues 364-413, proline-rich region with a PPLP motif; also called SF3A1 region (364-413); source: E. coli BL21(DE3), purified (Ni-NTA, SEC), GB1 tag kept; not shown: GB1, N-terminal, kept
B3 showed a Kd [4] of ~10 µM.

B4: GB1-tagged SF1 470-485 peptide (peptide)
chain: GAMSGSMPPPPMGMMPPPPPPPSGSN
notes: common N-terminal residues after the TEV site; SF1 residues 470-485; common C-terminal residues; source: E. coli BL21(DE3), purified (Ni-NTA, SEC), GB1 tag kept; not shown: GB1, N-terminal, kept
With B4 the Kd [2] was ~10 µM.

B5: GB1-SF1(478-493) 16-mer peptide (peptide)
chain: GAMSGSMPPPPPPPSGQPPPPPSGSN
notes: common N-terminal residues after the TEV site (TEVsite-GAMSGS-peptide-SGSN); SF1 (splicing factor 1) residues 478-493; common C-terminal residues; pET24 vector with 6xHis, GB1 and TEV site as N-terminal cassette, not cleaved; source: E. coli BL21(DE3), purified (Ni-NTA, SEC); not shown: GB1, N-terminal, kept
In the case of B5, the Kd [5] is reported as 8.26 µM and 10.3 µM and 10.2 µM and 9.59 µM.

B6: GB1-SF1(425-440) 16-mer peptide (peptide)
chain: GAMSGSMQPPPPPMNQGPHPPGSGSN
notes: common N-terminal residues after the TEV site (TEVsite-GAMSGS-peptide-SGSN); SF1 (splicing factor 1) residues 425-440; common C-terminal residues; pET24 vector with 6xHis, GB1 and TEV site as N-terminal cassette, not cleaved; source: E. coli BL21(DE3), purified (Ni-NTA, SEC); not shown: GB1, N-terminal, kept
For B6, the Kd [5] was 15.9 µM and 21.8 µM and 22.9 µM and 20.2 µM.

B7: GB1-SF1(623-638) 16-mer peptide (peptide)
chain: GAMSGSMPPFGMPPAPPPPPPQSGSN
notes: common N-terminal residues after the TEV site (TEVsite-GAMSGS-peptide-SGSN); SF1 (splicing factor 1) residues 623-638; common C-terminal residues; pET24 vector with 6xHis, GB1 and TEV site as N-terminal cassette, not cleaved; source: E. coli BL21(DE3), purified (Ni-NTA, SEC); not shown: GB1, N-terminal, kept
B7 was tested, and the Kd [5] was 21.8 µM and 24.8 µM and 23.3 µM.

B8: GB1-SF1(470-485) 16-mer peptide (peptide)
chain: GAMSGSMPPPPMGMMPPPPPPPSGSN
notes: common N-terminal residues after the TEV site (TEVsite-GAMSGS-peptide-SGSN); SF1 (splicing factor 1) residues 470-485; common C-terminal residues; pET24 vector with 6xHis, GB1 and TEV site as N-terminal cassette, not cleaved; source: E. coli BL21(DE3), purified (Ni-NTA, SEC); not shown: GB1, N-terminal, kept
In the case of B8, the Kd [6] is reported as > 250 µM.
